In IntAct's records for PubMed 23542155:

B1: Ligand-dependent nuclear receptor-interacting factor 1 (Homo sapiens), Q5T3J3 (parent)
chain: MSNNLRRVFLKPAEENSGNASRCVSGCMYQVVQTIGSDGKNLLQLLPIPKSSGNLIPLVQSSVMSDALKGNTGKPVQVTFQTQISSSSTSASVQLPIFQPASSSNYFLTRTVDTSEKGRVTSVGTGNFSSSVSKVQSHGVKIDGLTMQTFAVPPSTQKDSSFIVVNTQSLPVTVKSPVLPSGHHLQIPAHAEVKSVPASSLPPSVQQKILATATTSTSGMVEASQMPTVIYVSPVNTVKNVVTKNFQNIYPKPVTEIAKPVILNTTQIPKNVATETQLKGGQHSQAAPVKWIFQDNLQPFTPSLVPVKSSNNVASKILKTFVDRKNLGDNTINMPPLSTIDPSGTRSKNMPIKDNALVMFNGKVYLLAKKGTDVLPSQIDQQNSVSPDTPVRKDTLQTVSSSPVTEISREVVNIVLAKSKSSQMETKSLSNTQLASMANLRAEKNKVEKPSPSTTNPHMNQSSNYLKQSKTLFTNPIFPVGFSTGHNAPRKVTAVIYARKGSVLQSIEKISSSVDATTVTSQQCVFRDQEPKIHNEMASTSDKGAQGRNDKKDSQGRSNKALHLKSDAEFKKIFGLTKDLRVCLTRIPDHLTSGEGFDSFSSLVKSGTYKETEFMVKEGERKQQNFDKKRKAKTNKKMDHIKKRKTENAYNAIINGEANVTGSQLLSSILPTSDVSQHNILTSHSKTRQEKRTEMEYYTHEKQEKGTLNSNAAYEQSHFFNKNYTEDIFPVTPPELEETIRDEKIRRLKQVLREKEAALEEMRKKMHQK

Variants of: B1
Settings: with cbx5_human CBX5, P45973
cbx5_human CBX5, P45973, sequence (P45973 whole entry): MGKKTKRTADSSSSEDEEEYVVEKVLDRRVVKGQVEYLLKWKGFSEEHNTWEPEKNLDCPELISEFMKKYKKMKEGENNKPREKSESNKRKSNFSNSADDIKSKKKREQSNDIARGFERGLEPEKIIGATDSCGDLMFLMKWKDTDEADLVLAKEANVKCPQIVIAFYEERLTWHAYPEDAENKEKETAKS

Row | effect of a mutation on the interaction | Variant
1 | disrupting interaction strength | V582D;L584E
